Experiments:
Assay type in all cases: biochemical
[1] = system: 3′-O-carbamate or ester blocked nucleotides; assay: incorporation of 3′-O-blocked nucleotides, mutant vs. wild type polymerase, quantified by densitometry; conditions: for rates of incorporation of 3′-O-carbamate or ester blocked nucleotides as compared to wild type (WT) Hs PolM: densitometry
Description: The incorporation of 3′-O-carbamate or ester blocked nucleotides by the PolM-loop1 chimera, Hs PolM-Lp1, or the truncated PolM-loop1 chimera, Hs tPolM-Lp1 was compared to that of wild type Hs PolM. The amount of incorporation was quantified by densitometry.

[2] = system: 3′-O-blocked adenosine 5′-triphosphates; assay: incorporation of 3′-O-blocked adenosine, comparison with Bt TdT
[3] = system: 3′-O-carbamate or ester blocked nucleotides; assay: template-free DNA synthesis reaction: incorporation of 3′-O-blocked nucleotides; conditions: template-independent, dNTP1, 2, 3, 5, 6 of Table 2; FIG. 5
Description: The ability of the PolM-loop1 chimera, Hs PolM-Lp1, to incorporate 3′-O-blocked nucleotides was examined in a template-free DNA synthesis reaction.

Fold increase Hs tPolM-Lp1 vs. Hs PolM-Lp1 ([1]; Blocking group 1)	Fold increase Hs tPolM-Lp1 vs. Hs PolM-Lp1 ([1]; Blocking group 2)	Fold increase Hs tPolM-Lp1 vs. Hs PolM-Lp1 ([1]; Blocking group 3)	Fold increase Hs tPolM-Lp1 vs. Hs PolM-Lp1 ([1]; Blocking group 5)	Fold increase Hs tPolM-Lp1 vs. Hs PolM-Lp1 ([1]; Blocking group 6 (artificial base-5SICS))	Fold increase Hs tPolM-Lp1 vs. Hs PolM-Lp1 ([1]; Blocking group 6 (standard base))	rates of incorporation of 3′-O-carbamate or ester blocked nucleotides as compared to wild type (WT) Hs PolM [1]	Molecule	increase in incorporation relative to Bt TdT [2]	incorporation of 3′-O-carbamate or ester blocked nucleotides [3]
2.2 Fold	2.1 Fold	2.0 Fold	1.3 Fold	3.0 Fold	2.0 Fold	significantly increased	Hs tPolM-Lp1: Homo sapiens PolM, Loop 1 domain swap and N-terminal truncation (Δ 1-108) (protein) MLGAGQPVPVECRHRLEVAGPRKGPLSPAWMPAYACQRPTPLTHHNTGLSEALEILAEAAGFEGSEGRLLTFCRAASVLKALPSPVTTLSQLQGLPHFGEHSSRVVQELLEHGVCEEVERVRRSERYQTMKLFTQIFGVGVKTADRWYREGLRTLDDLREQPQKLTQQQKAGLQHHQDLSTPVLRSDVDALQQVVEEAVGQALPGATVTLTGGFRRGKLQGHDVDFLITHPKEGQEAGLLPRVMCRLQDQGLILYHQHQESTFEKLRLPSRKVDALDHFERSFCIFRLPQPPGAAVGGSTRPCPSWKAVRVDLVVAPVSQFPFALLGWTGSKLFQRELRRFSRKEKGLWLNSHGLFDPEQKTFFQAASEEDIFRHLGLEYLPPEQRNA	2.7 fold	–
–	–	–	–	–	–	significantly increased	Hs PolM-Lp1: Homo sapiens PolM, Loop 1 domain swap (protein) MLPKRRRARVGSPSGDAASSTPPSTRFPGVAIYLVEPRMGRSRRAFLTGLARSKGFRVLDACSSEATHVVMEETSAEEAVSWQERRMAAAPPGCTPPALLDISWLTESLGAGQPVPVECRHRLEVAGPRKGPLSPAWMPAYACQRPTPLTHHNTGLSEALEILAEAAGFEGSEGRLLTFCRAASVLKALPSPVTTLSQLQGLPHFGEHSSRVVQELLEHGVCEEVERVRRSERYQTMKLFTQIFGVGVKTADRWYREGLRTLDDLREQPQKLTQQQKAGLQHHQDLSTPVLRSDVDALQQVVEEAVGQALPGATVTLTGGFRRGKLQGHDVDFLITHPKEGQEAGLLPRVMCRLQDQGLILYHQHQESTFEKLRLPSRKVDALDHFERSFCIFRLPQPPGAAVGGSTRPCPSWKAVRVDLVVAPVSQFPFALLGWTGSKLFQRELRRFSRKEKGLWLNSHGLFDPEQKTFFQAASEEDIFRHLGLEYLPPEQRNA	–	successfully incorporated

Reference: patent publication US20190078065A1, “MODIFIED DNA POLYMERASES” (SIGMA-ALDRICH CO. LLC, priority 2017, published 2019)
